Test results: patent US20240034792A1 (HARBOUR BIOMED SHANGHAI, published 2024)
Read-outs that look alike come from different tables or passages of the source.

Legend:
[1] = molecular target: T1, Human PD-1 expressed on CHO-K1 cells (CHO-K1/hPD-1) (human, UniProt Q15116 25-288); assay: FACS, CHO-K1/hPD-1 cells
T1 construct: whole, on cells; also called CHO-K1 cells overexpressing human PD-1

[2] = molecular target: T1, Human PD-1 expressed on CHO-K1 cells …; assay: FACS, CHO-K1-hPD-1 cells
Procedure: In order to investigate the binding activity of the CD73×PD-1 bispecific antibody to human CD73 and PD-1, the binding assay at the cellular level was performed using a CHO-K1 cell strain overexpressing human CD73 or PD-1 (CHO-K1-hCD73 or CHO-K1-hPD-1). Briefly, the CHO-K1-hCD73 and CHO-K1-hPD-1 cells were digested and resuspended in an F-12K complete medium, and the cell density was adjusted to 1×10⁶ cells/mL. The cells were seeded in a 96-well V-bottom plate (Corning, #3894) at 100 μL/well, followed by the addition at 100 μL/well and centrifugation at 500 g at 4° C. for 5 min, and then the supernatant was discarded. Antibodies were 3-fold diluted to a maximum final concentration of 50 nM, and a total of 8 concentrations were set. 100 μL of the diluted antibodies was added to each well, and the cells were incubated at 4° C. for 1 h away from light. Thereafter, the cells in each well were rinsed twice with 100 μL of pre-cooled PBS, and centrifuged at 500 g at 4° C. for 5 min, and then the supernatant was discarded. Then 100 μL of a fluorescent secondary antibody (goat anti-human IgG (H+L) secondary antibody, Alexa Fluor® 488 conjugate, Invitrogen, Cat #A11013, 1:1000) was added to each well. […] Finally, the cells in each well were resuspended in 200 μL of pre-cooled PBS, and the fluorescence signal values were read using a BD FACS CANTOII.

[3] = molecular target: T1, Human PD-1 expressed on CHO-K1 cells …; assay: FACS, CHO-K1/hPD-1 cells; remark: listed apart in the source
[4] = molecular target: T2, Cynomolgus monkey PD-1-His protein (AcroBiosystems, # PD1-05223) (cynomolgus monkey, UniProt B0LAJ3 25-170); assay: ELISA, plate-coated cynomolgus monkey PD-1-His
T2 construct: Bought reagent, coated on the ELISA plate; also called cynomolgus monkey PD-1 protein
Procedure: Cynomolgus monkey PD-1-His protein (AcroBiosystems, # PD1-05223) was diluted to 2 μg/mL with PBS, added to a 96-well plate (Corning, #9018) at 100 μL/well, and incubated at 4° C. overnight. After the liquid was discarded, the plate was washed 3 times with PBST, blocked by adding 250 μL of 2% BSA, and incubated at room temperature for 1 h. The blocking buffer was discarded, and the plate was washed 3 times with PBST buffer (pH 7.4, containing 0.05% Tween-20). The test antigen-binding protein was diluted to 5 μg/mL, and added at 100 μL/well. The plate was incubated at 37° C. for 1 h. After the plate was washed 3 times with PBST buffer (pH 7.4, containing 0.05% Tween-20), a 4000-fold diluted goat anti-human HRP secondary antibody (Invitrogen, #A18805) was added. The plate was incubated at 37° C. for 1 h. After the plate was washed, TMB (Biopanda, # TMB-S-003) was added at 100 μL/well. The plate was left away from light at room temperature for 5 min. The reactions were terminated by adding 50 μL of stop buffer (BBI life sciences, #E661006-0200) to each well, and the absorbance values at 450 nm (OD450) were measured using a microplate reader (PerkinElemer, #Enspire).

[5] = molecular target: T1, Human PD-1 expressed on CHO-K1 cells …; assay: FACS blocking of biotin-labeled human PD-L1 binding to CHO-K1-hPD-1 cells

T1 sequence (Q15116 25-288): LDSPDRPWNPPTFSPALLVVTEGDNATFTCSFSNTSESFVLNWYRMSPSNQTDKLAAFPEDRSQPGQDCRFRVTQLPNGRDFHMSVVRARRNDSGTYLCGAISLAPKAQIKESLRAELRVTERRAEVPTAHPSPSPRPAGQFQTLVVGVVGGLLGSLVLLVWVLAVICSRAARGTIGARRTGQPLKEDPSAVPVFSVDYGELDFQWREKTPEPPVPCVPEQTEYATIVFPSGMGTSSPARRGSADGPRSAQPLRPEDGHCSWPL
T2 sequence (B0LAJ3 entry or part of it limits assumed): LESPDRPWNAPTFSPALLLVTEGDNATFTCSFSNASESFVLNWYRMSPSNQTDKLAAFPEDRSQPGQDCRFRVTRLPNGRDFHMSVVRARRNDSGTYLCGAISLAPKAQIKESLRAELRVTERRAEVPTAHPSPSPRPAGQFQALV

EC50 [1]: 7.99 nM
Maximum (MFI) [1]: 2.63e+06
EC50 [2]: 1.24 nM
EC50 [3]: 8.18 nM
Maximum (MFI) [3]: 2.75e+06
EC50 [4]: 0.031 nM
OD Maximum [4]: 3.06
IC50 [5]: 8.86 nM
Maximum inhibition rate (%) [5]: 103%
B1: PR002481 (antibody, human IgG1, V domains shown)
VH: EVQLVETGGGLIQPGGSLRLSCAASGFNVSSHYMSWVRQAPGKGREWVSIIDGGGSTYYADSVKGRFTISRDNSKNRLYLQMNSLRAEDTAMYYCARATAVAEKNGYNYPFNYWGQGTLVTVSS
notes: Heavy-chain-only antibody (HCAb), human IgG1 Fc; two heavy chains, no light chain; also called R4004P556D1; anti-PD1 R4004P556D1 HCAb hG1
